For one substance, Ki results are on record in US20160186238A1.

The assay addresses trypsin (bovine) (UniProt P00760). The assay can be described thus: trypsin activity inhibition, fluorogenic substrate Z-Arg-AMC, fit of activity vs inhibitor concentration.

trypsin (bovine), sequence (P00760 24-246): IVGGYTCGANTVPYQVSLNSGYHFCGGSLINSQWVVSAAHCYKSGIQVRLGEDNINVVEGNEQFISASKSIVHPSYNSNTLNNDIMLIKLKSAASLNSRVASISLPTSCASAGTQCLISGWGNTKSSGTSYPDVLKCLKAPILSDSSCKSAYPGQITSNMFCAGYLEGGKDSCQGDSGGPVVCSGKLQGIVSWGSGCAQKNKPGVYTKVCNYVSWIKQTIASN

By Ki is commonly meant a measure of affinity in units of concentration, obtained from inhibition or displacement. Read a high Ki as weaker binding. Regarding antipain (peptide), the Ki amounted to 0.0395 µM.
